Blank lines part the entries; values can stand above or below the binder they belong to.
Assays:
[1] = target: T1, fusion protein containing the extracellular domain of human FRalpha and a polyhistidine tag (human, UniProt P15328 25-233); test: ELISA, plate coated with human FRalpha ECD-His, anti-human-IgG-Fc-HRP detection
T1 construct: extracellular domain; Coated on ELISA plates; also called human FRalpha extracellular domain; not shown: polyhistidine tag
Protocol: The affinity of each IgG1 for FRalpha was confirmed by ELISA. Briefly, a fusion protein containing the extracellular domain of human FRalpha and a polyhistidine tag was used to coat ELISA plates, which were washed three times with phosphate-buffered saline (PBS) containing 0.1 percent polysorbate 20 (PBST), then blocked with PBS containing 5 percent powdered milk (PBSM), and then washed three more times with PBST. Wells were then incubated with antibodies at varying concentrations for 60 minutes at room temperature in 1 percent PBSM. Wells were then washed three times with PBST, after which the secondary, horse-radish-peroxidase-conjugated antibody anti-human-IgG-Fc-HRP (ab97225, Abcam, United Kingdom) was added at a 1:8000 dilution in 1 percent PBSM for 50 minutes at room temperature. The wells were then washed six times with PBST, after which 3,3',5,5"-tetramethylbenzidine (TMB) was added. The reaction was stopped with 2 molar sulfuric acid, and the TMB diamine product was quantified at 450 nanometers in a plate reader. Results are depicted in FIG. 2.

[2] = target: T2, fusion protein containing the extracellular domain of cynomolgus FRalpha and a polyhistidine tag (cynomolgus, UniProt A0A2K5U044 25-233); test: ELISA, plate coated with cynomolgus FRalpha ECD-His, anti-human-IgG-Fc-HRP detection
T2 construct: extracellular domain; Coated on ELISA plates; also called cynomolgus FRalpha extracellular domain; not shown: polyhistidine tag

[3] = target: T3, human FRalpha expressed on cells (transfected HEK293 cells; SKOV3 human ovarian cancer cells) (human, UniProt P15328 25-234); test: flow cytometry on HEK293 cells transfected to express FRalpha, PE anti-human IgG Fcgamma detection
T3 construct: whole, on cells; also called human folate receptor alpha
Protocol: (§1) The affinity of each antibody was then assessed by flow cytometry. Briefly, HEK293 cells transfected to express FRalpha were washed with fluorescence-activated cell sorting (FACS) buffer, to which the IgGs were added at varying concentrations and incubated at 4 degrees Celsius for 60 minutes. The cells were then centrifuged and washed twice in FACS buffer. A phycoerythrin-labelled anti-human IgG, Fcgamma antibody (109-115-098; Jackson ImmunoResearch, Pennsylvania, United States) was then added to the cells at a 1:200 dilution and incubated at 4 degrees Celsius for 30 minutes. The cells were then washed, resuspended in FACS buffer, and counted by flow cytometry. Results are depicted in FIG. 4.

[4] = target: T3, human FRalpha expressed on cells …; test: flow cytometry on SKOV3 human ovarian cancer cells that express FRalpha
Protocol: as §1
The flow cytometry experiment of the preceding paragraph was repeated with a human ovarian cancer cell line that expresses FRalpha, SKOV3. Results are depicted in FIGS. 5A and 5B. […] The antibody according to SEQ ID NO: 3-12 was then designated the lead antibody for further development.

T3 sequence (P15328 25-234): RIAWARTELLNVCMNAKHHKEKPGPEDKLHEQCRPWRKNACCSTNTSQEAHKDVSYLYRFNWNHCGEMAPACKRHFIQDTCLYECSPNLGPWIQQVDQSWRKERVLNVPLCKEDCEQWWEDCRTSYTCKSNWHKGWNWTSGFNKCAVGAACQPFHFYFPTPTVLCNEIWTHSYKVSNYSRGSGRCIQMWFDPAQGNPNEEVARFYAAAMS
T2 sequence (A0A2K5U044 entry or part of it): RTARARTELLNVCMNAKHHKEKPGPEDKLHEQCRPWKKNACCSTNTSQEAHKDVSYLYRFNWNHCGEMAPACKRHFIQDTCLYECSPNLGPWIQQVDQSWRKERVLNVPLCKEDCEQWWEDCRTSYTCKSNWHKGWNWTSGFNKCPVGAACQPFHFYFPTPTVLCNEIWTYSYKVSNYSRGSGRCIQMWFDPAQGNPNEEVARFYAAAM
T1 sequence (P15328 25-233 limits assumed): as the sequence (A0A2K5U044 entry or part of it) above, with T2I, R4W, K37R, P146A, Y171H counted along it

EC50 [1]: ~0.12 nM
EC50 [2]: ~0.16 nM
EC50 [3]: ~4 nM
B1: Mirvetuximab (antibody, V domains shown)
VH: QVQLVQSGAEVVKPGASVKISCKASGYTFTGYFMNWVKQSPGQSLEWIGRIHPYDGDTFYNQKFQGKATLTVDKSSNTAHMELLSLTSEDFAVYYCTRYDGSRAMDYWGQGTTVTVSS
VL: DIVLTQSPLSLAVSLGQPAIISCKASQSVSFAGTSLMHWYHQKPGQQPRLLIYRASNLEAGVPDRFSGSGSKTDFTLTISPVEAEDAATYYCQQSREYPYTFGGGTKLEIK

EC50 [4]: < 1 nM
EC50 [1]: ~0.05 nM
EC50 [2]: ~0.06 nM
EC50 [3]: ~5 nM
B2: lead fully-human anti-FRalpha IgG1 antibody (antibody according to SEQ ID NO: 3-12) (antibody, V domains shown)
VH: EVQLLESGGGLVKPGGSLRLSCAASGFTFSSYTMNWVRQAPGKGLEWVSSISSGGGYIYYADSVKDRFTISRDNAKNSLYLQMNSLRAEDTAVYYCAKGDTIMIISAWGQGTTVTVSS
VL: DIQLTQSPSTLSASVGDRVTITCRASQSISSWLAWHQQKPGKAPKLLIYAASSLQNGVPSRFSGSGFGTDFTLTISSLQPEDFATYYCQQASSFPLTFGGGTKVEIKR
notes: Fully human IgG1/kappa; also called lead antibody; lead anti-FRalpha antibody

Reference: patent publication US12258396 (MEDICOVESTOR, dated 2025)
